Data as given in US20240173377A1 (EPIVAX, published 2024).

What was measured:
Experiment in all cases: competition HLA binding assay: soluble HLA, labeled control peptide, capture on anti-human DR antibody, time-resolved fluorescence
HLA DRB1*1301 = biological target: T1, HLA DRB1*1301 (human)
T1 construct: Described only as a soluble HLA molecule; also called soluble HLA molecule

HLA DRB1*0101 = biological target: T2, HLA DRB1*0101 (human)
T2 construct: Described only as a soluble HLA molecule; also called soluble HLA molecule

HLA DRB1*0301 = biological target: T3, HLA DRB1*0301 (human)
T3 construct: Described only as a soluble HLA molecule; also called soluble HLA molecule

HLA DRB1*0401 = biological target: T4, HLA DRB1*0401 (human)
T4 construct: Described only as a soluble HLA molecule; also called soluble HLA molecule

HLA DRB1*0701 = biological target: T5, HLA DRB1*0701 (human)
T5 construct: Described only as a soluble HLA molecule; also called soluble HLA molecule

HLA DRB1*1101 = biological target: T6, HLA DRB1*1101 (human)
T6 construct: Described only as a soluble HLA molecule; also called soluble HLA molecule

Measured: binding result

B1: SEQ ID NO 115 (peptide)
peptide: ILTIHFTGHSFIYGK
notes: L-amino acid Tregitope, assayed alongside its retro-inverso counterpart
binds: all assays above

B2: SEQ ID NO 114 (peptide)
peptide: EEQYNSTYTVVSVLTVLHQD
notes: as for B1
binds: all assays above
